This is an account of results in publication PMC8726733 (mAbs, 2021).

In experiment [1] the target is biotinylated avitag-labeled canine CTLA4 (dog, UniProt Q9XSI1, biotin (biotinylated avitag)). Nature of the experiment: ELISA.
Experiment [2] concerns the target feline CTLA4 of feline CD5+ leucocytes (Felis catus, endogenous; allele not …, UniProt Q9XSY7). Nature of the experiment: flow cytometry on cells. A general note: Flow cytometry measures light scatter and fluorescence of single cells or particles in a stream.

Chain of biotinylated avitag-labeled canine CTLA4 (Q9XSI1 36-161): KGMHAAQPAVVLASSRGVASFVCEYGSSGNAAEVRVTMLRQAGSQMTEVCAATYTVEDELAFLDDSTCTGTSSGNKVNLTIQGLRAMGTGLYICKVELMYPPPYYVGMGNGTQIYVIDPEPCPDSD

B1: A1 soluble canine anti-cCTLA4 scFv (scFv, V domains shown)
VH: EVQLVESGGDLVKPAGSLRLSCVASGFSFSSYAMNWVRQAPGKGLQWIAGINSGGSSTSHIDAIKGRFTISRDNAKNTLYLQMNSLRAEDTAVYYCAISNWAYWGQGTLVTVSS
VL: QAVLNQPASVSGSLGQRVTISCTGSSSDIGKSYVAWYQQLPGTGPRTLINVDGNRASGVPDRFSVSRSGNTATLTISGLQAEDEADYHCSSWDWSLHTYVFGSGTQLTIL
Consider B1, for which, in experiment [1], the binding result is listed as “binds”.

B2: A1mut2 fully canine IgGA (antibody, V domains shown)
VH: EVQLVETGGDLVKPGGSLRLSCVASGFSFSSYAMNWVRQAPEKGLQLVGGINSGGSSTYYTDAVKGRFTISRDNAKNTVYLQMNSLRAEDTAVYYCAISNWAYWGQGTLVTVSS
VL: QAVLNQPASVSGSLGQRVTISCTGSSSDIGKSYVAWYQQLPGTGPRTLINVDGNRASGVPDRFSVSRSGNTATLTISGLQAEDEADYHCSSWDWSLHTYVFGSGTQLTIL
For the molecule B2, the binding result in experiment [2] is reported as “binds”.
